The values that follow come from paper PMC8945002, “Pseudomonas aeruginosa Bacterioferritin Is Assembled from FtnA and BfrB Subunits with the Relative Proportions Dependent on the Environmental Oxygen Availability” (Biomolecules, 2022).

For orientation: Kd means a measure of binding affinity in units of concentration. For orientation: stoichiometry N means a count of units in the complex or per binding partner.

The chains are these.
B1: bacterioferritin-associated ferredoxin (Bfd) (natural protein, P. aeruginosa, UniProt Q9HY80 1-73, looked up)
chain: MYVCLCQGVTDNQIRDAIYEGCCSYREVREATGVGTQCGKCACLAKQVVRETLNDLQSAQPVPAFGTTAFVAA
notes: Bfd, the bacterioferritin-associated [2Fe-2S] ferredoxin of P. aeruginosa, product of the bfd gene next to bfrB; Holds a [2Fe-2S] cluster
B2: Bfr containing only BfrB subunits (24-mer BfrB) isolated from P. aeruginosa (natural protein)
chain: not shown
notes: BfrB, bacterioferritin subunit of P. aeruginosa PAO1, gene PA3531; subunit mass 18,552 Da by LC-MS; 24 copies hold for the homooligomer (SPR target, self rows); in the rows with m3 it stands for the BfrB subunits of the heterooligomeric 24-mer Bfr; also called homooligomeric BfrB; Bfr (0% FtnA, 21% O2); source: purified from P. aeruginosa PAO1 or ΔftnA cells (Q Sepharose, hydroxyapatite, Superdex …)
B3: FtnA subunit of P. aeruginosa (endogenous) (natural protein, P. aeruginosa PAO1 (endogenous), UniProt Q9HWF9 1-154, looked up)
chain: MQGHPEVIDYLNTLLTGELAARDQYFIHSRMYEDWGFSKLYERLNHEMEEETQHADALLRRILLLEGTPRMRPDDIHPGTTVPEMLEADLKLERHVRAALAKGIALCEQHKDFVSRDILKAQLADTEEDHAYWLEQQLGLIARMGLENYLQSQI
notes: FtnA, bacterial ferritin subunit of P. aeruginosa PAO1, gene PA4235 (formerly annotated bfrA); subunit mass 17,940 Da by LC-MS; Found in PAO1 only as a subunit of heterooligomeric Bfr; as 24-mer FtnA only in lysates of ΔbfrB cells cultured in 2% O2 or anaerobically; also called bacterial ferritin; formerly BfrA; source: purified from P. aeruginosa PAO1 as part of Bfr (Q Sepharose, hydroxyapatite, …)

The target of data set [1] is B2. The data set can be described thus: SPR; Biacore X100, 25 °C; Bfr or FtnArec immobilised on CM5 chips by amine coupling (100 nM in 10 mM sodium acetate pH 5.0); Bfd 0-40 μM flowed at 5 µL/min in PBS pH 7.4 with 1 mM TCEP; steady-state analysis, steric factor n set to 0.91. As to conditions: both partners purified.
For data set [2], the target named is T1, heterooligomeric 24-mer Bfr containing ~45% FtnA, isolated from PAO1 cells cultured in 2% O2 (P. aeruginosa PAO1 (endogenous), UniProt Q9HY79 1-158; Q9HWF9 1-154).
T1 construct: BfrB subunit of P. aeruginosa PAO1, gene PA3531; 18,552 Da; ~55% of the 24 subunits; FtnA subunit of P. aeruginosa PAO1, gene PA4235; 17,940 Da; ~45% of the 24 subunits; 24 subunits in all; a population of molecules of varying composition, on average ~45% FtnA; heme in the BfrB dimers; also called heterooligomeric Bfr; Bfr 45 (2% O2); source: purified from P. aeruginosa PAO1 cultured in 2% O2 (Q …)
T1 sequence (Q9HY79 whole entry, chain 1 of 2, one chain of several): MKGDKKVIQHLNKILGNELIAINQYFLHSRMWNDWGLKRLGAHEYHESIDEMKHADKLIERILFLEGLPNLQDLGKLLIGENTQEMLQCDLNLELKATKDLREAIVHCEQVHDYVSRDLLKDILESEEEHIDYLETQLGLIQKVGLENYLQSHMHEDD
The description is as above. The note with it: both partners purified.

Data set [3] concerns the molecule itself. The experiment in a line: SEC; Superdex 200 Increase 10/300 GL, 100 mM phosphate buffer pH 7.6, 1 mM TCEP; pure Bfr from P. aeruginosa; elution volume compared with a ferritin standard. A general note: Size exclusion chromatography separates by hydrodynamic size, large species first.
Data set [4] concerns the molecule itself. The experiment in a line: native gel or EMSA; lysates of PAO1, ΔftnA and ΔbfrB cells (21%, 10%, 2% O2 or anaerobic) on native PAGE, stained for iron with Ferene S; BfrBrec and FtnArec as mobility standards; bands excised, digested with trypsin and identified by LC-MS. (In EMSA bound probe runs differently from free probe, usually more slowly.)

On to B1, for which the figures for the Kd in data set [1] and in data set [2] were 4.7 ± 0.8 µM and 4.3 ± 0.5 µM, respectively.
For the molecule B2, the “stoichiometry N” value in data set [3] amounted to 24.
Regarding B3, the “stoichiometry N” value in data set [4] was 24.
